T1: murine tissue factor (TF) on transfected HEK293F cells (murine, UniProt P20352 29-294)
T1 construct: whole, on cells; also called murine TF; TFmm
T1 sequence (looked up): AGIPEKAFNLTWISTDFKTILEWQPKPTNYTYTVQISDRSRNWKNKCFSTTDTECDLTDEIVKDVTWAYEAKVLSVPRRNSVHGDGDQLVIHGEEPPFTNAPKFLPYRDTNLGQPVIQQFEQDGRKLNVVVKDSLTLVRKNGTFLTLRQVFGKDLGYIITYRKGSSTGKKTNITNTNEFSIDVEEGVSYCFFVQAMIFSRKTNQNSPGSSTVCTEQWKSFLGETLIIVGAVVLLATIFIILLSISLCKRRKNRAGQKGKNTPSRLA


How the values were obtained:
[1] = molecular target: T2, TFECDHis (extracellular domain of tissue factor, amino acid 1-251, with C-terminal His tag) (human, UniProt P13726 33-251); test: ELISA, coated TFECDHis, mean of 3
T2 construct: range 1-251; The stated range 1-251 starts at residue 1 of NP-001984; also called extracellular domain of TF
How it was run: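 Plates coated overnight at +4° C with 0.5 μg/mL TFECDHis in PBS pH 7.4, blocked with 2% chicken serum. Serially diluted HuMabs bound 1 h at RT with shaking, detected with HRP anti-human IgG. Binding curves fitted by sigmoidal dose-response with variable slope; anti-KLH HuMab served as negative control.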

[2] = molecular target: T2, TFECDHis (extracellular domain of …); test: SPR BIAcore 3000, HuMab immobilized, TFECDHis analyte; footnote: n.a. not assessable = >10^-3 sec^-1
Description: (§1) Antibody binding to TF was analyzed by surface plasmon resonance in a BIAcore 3000 (GE Healthcare). TFECDHis was used for the analysis. HuMab antibodies (500 resonance units) were immobilized on the CM-5 sensor chip according to the procedure recommended by the manufacturer. Briefly, after surface activation by EDC and NHS HuMab antibody was injected over the activated CM-5 surface in 10 mM sodium-acetate, pH ranging from 4.0 to 5.5 at 5 μl/min. followed by 1 M Ethanolamine for deactivation. Concentration series of TFECDHis in HBS-EP buffer were injected over the immobilized antibodies at a flow rate of 30 μl/min for 180 sec. Regeneration of the HuMab surface was performed by injection of 10 mM Glycine-HCl pH 2.0 or 10 mM sodium acetate pH 3.0. Kinetic analysis was performed using double reference subtraction and model 1:1 (langmuir) binding analysis.

[3] = molecular target: T3, human tissue factor (TF), membrane-bound on cells (human, UniProt P13726 33-295); test: FACS, MDA-MB-231 cells, 30 µg/mL
T3 construct: whole, on cells; also called cellular TF
How it was run: (§2)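 Flow cytometry readout of PE-labelled anti-human IgGFc bound to cells after a 30 min on-ice incubation with HuMab dilution series. Binding curves analysed by non-linear regression (sigmoidal dose-response, variable slope). HuMab-KLH served as negative control.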

[4] = molecular target: T3, human tissue factor (TF), …; test: FACS, Bx-PC3 cells, 30 µg/mL
How it was run: as §2

[5] = molecular target: T3, human tissue factor (TF), …; test: cell-based or functional assay
[6] = molecular target: T3, human tissue factor (TF), …; test: FACS, MDA-MB-231 cells
How it was run: as §2

[7] = molecular target: T2, TFECDHis (extracellular domain of …); test: competition ELISA, inhibition of FVIIa (100 nM) binding to coated TFECDHis
Description: ELISA plates were coated overnight with TFECDHis (0.5 μg/mL, 100 μL per well). Plates were emptied, blocked with PBS containing 2% (v/v) chicken serum (1 hour, RT), and emptied again. […] Plates were washed and incubated with swine-anti-rabbit IgG-HRP antibody (1:2,500; DAKO). After washing, the immune complexes were visualized using ABTS as a substrate.

[8] = molecular target: T2, TFECDHis (extracellular domain of …); test: SPR BIAcore 3000, HuMab immobilized, TFECDHis analyte
Description: as §1

[9] = molecular target: T1, murine tissue factor (TF) on …; test: FACS on transfected HEK293F cells, 30 µg/mL antibody [panel I]
[10] = molecular target: T3, human tissue factor (TF), …; test: FACS, Bx-PC3 cells
How it was run: as §2

TF (Innovin) = TF (Innovin) (UniProt P13726 33-295, limits assumed); test: cell-based or functional assay
[11] = molecular target: T3, human tissue factor (TF), …; test: FACS, TF transfected CHO cells (S1015-TF)
How it was run: as §2

[12] = molecular target: T3, human tissue factor (TF), …; test: FACS, A431 cells, 30 µg/mL
How it was run: as §2

[13] = molecular target: T3, human tissue factor (TF), …; test: FACS, TF transfected CHO cells (S1015-TF), 7.5 µg/mL
How it was run: as §2

[14] = molecular target: T1, murine tissue factor (TF) on …; test: FACS on transfected HEK293F cells, 30 µg/mL antibody [panel J]
[15] = molecular target: T3, human tissue factor (TF), …; test: FACS, A431 cells
How it was run: as §2

| EC50 [1] | koff [2] | Max MFI [3] | Max MFI [4] | max inhibition of FVIIa induced IL-8 release (MDA-MB-231) [5] | EC50 [6] | max inhibition [7] | kon [8] | binding result [9] | EC50 [10] | IC50, inhibition of blood coagulation (TF induced clotting time) (TF (Innovin)) | EC50 [11] | Max MFI [12] | Kd [8] | Max MFI [13] | binding result [14] | EC50 [15] | Binder |
| --- | --- | --- | --- | --- | --- | --- | --- | --- | --- | --- | --- | --- | --- | --- | --- | --- | --- |
| 0.09 nM | > 0.001 s⁻¹ | 1110 | 1030 | 4.3% | 8.28 nM | 35% | 591000 M⁻¹ s⁻¹ | no binding (tested: 30 µg/mL) | 7.19 nM | – | – | – | – | – | – | – | anti-TF HuMab 087-Lg6 (antibody, V domains shown, Human monoclonal antibody from HuMab mice) VH: EVQLVQSGAEVKKPGESLKISCKGSGYSFTSCWIGWVRQMPGKGLEWMGIIYPGDSDTRYSPSFQGQVTISADKSISTAYLQWSSLKASDTAMYYCARHKLGMDHDAFDIWGQGTMVTVSS VL: DIQMTQSPSSLSASVGDRVTITCRASQGISSWLAWYQQKPEKAPKSLIYAASSLQSGVPSRFSGSGSGTDFTLTISSLQPEDFATYYCQQYNSYPPTFGQGTTVEVK |
| 0.18 nM | – | 2290 | 1260 | – | 0.53 nM | 90% | – | – | 0.84 nM | 0.2 nM | 1.32 nM | 3140 | 14.1 nM | 5410 | no binding (tested: 30 µg/mL) | 0.83 nM | anti-TF HuMab 092-A09 (antibody, V domains shown, Human monoclonal antibody from HuMab mice) VH: EVQLLESGGGLVQPGGSLRLSCAASGFTFNNYAMSWVRQAPGKGLEWVSSISGSGGRTYYADSVKGRFTISRDNSKNTLFLQMNSLRAEDTAVYYCAKTPWGYYFDYWGQGTLVTVSS VL: DIQMTQSPSSLSASVGDRVTITCRASQGISSRLAWYQQKPEKAPKSLIYAASSLQSGVPSRFSGSGSGTDFTLTISSLQPEDFATYYCQQYNSYPYTFGQGTKLEIK |

Source: patent US20110300156A1 (Genmab, published 2011)
